In IntAct's records for PubMed 25266290:

B1: Ras-related protein Rab-5A (Homo sapiens), P20339 (parent)
chain: MASRGATRPNGPNTGNKICQFKLVLLGESAVGKSSLVLRFVKGQFHEFQESTIGAAFLTQTVCLDDTTVKFEIWDTAGQERYHSLAPMYYRGAQAAIVVYDITNEESFARAKNWVKELQRQASPNIVIALSGNKADLANKRAVDFQEAQSYADDNSLLFMETSAKTSMNVNEIFMAIAKKLPKNEPQNPGANSARGRGVDLTEPTQPTRNQCCSN
partner: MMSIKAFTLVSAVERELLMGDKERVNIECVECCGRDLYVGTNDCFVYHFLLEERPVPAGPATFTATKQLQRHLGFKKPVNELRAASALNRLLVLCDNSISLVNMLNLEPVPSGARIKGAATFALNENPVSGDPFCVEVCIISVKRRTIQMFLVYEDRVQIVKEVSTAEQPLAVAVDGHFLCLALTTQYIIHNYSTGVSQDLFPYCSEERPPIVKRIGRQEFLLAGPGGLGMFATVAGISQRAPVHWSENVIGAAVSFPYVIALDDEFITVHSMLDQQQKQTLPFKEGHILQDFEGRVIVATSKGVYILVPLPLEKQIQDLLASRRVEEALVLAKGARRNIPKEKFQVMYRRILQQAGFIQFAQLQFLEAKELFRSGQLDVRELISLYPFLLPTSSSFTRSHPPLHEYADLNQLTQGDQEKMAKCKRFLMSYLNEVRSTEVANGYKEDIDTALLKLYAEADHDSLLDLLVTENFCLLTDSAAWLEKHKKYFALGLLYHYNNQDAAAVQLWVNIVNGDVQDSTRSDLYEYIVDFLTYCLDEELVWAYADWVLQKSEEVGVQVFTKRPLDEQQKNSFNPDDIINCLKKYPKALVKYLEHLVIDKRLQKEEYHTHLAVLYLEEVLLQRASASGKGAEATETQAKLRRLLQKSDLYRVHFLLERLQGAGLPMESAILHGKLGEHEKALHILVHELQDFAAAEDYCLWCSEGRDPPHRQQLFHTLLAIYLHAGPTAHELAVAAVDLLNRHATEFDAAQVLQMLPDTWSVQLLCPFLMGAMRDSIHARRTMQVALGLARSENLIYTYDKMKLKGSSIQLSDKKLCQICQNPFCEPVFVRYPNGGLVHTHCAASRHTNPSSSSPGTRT

Variants of: B1
Details: with tgfa1_human TGFBRAP1, Q8WUH2

Row | effect of a mutation on the interaction | Variant
1 | decreasing interaction | S34N
